Among the data in patent publication US6949357 are concentration of peptide values, retold here.

This assay concerns the target rabbit polyclonal antiserum against the BL172 synthetic peptide of SEQ ID NO: 20. Kind of assay: competition Western blot; antiserum pre-incubated overnight at 4 C with varying concentrations of peptide immunogen.

As to TQTCGNCTFRVCFEQCCPWTFMVKLINQNCD [BL172 synthetic peptide of SEQ ID NO: 20], the concentration of peptide at which antibody binding to the band was inhibited amounted to 2.9 µM.
